Entries after “also recorded” stand apart in the source; their conditions may differ. Read-outs that look alike come from different tables or passages of the source.
How the values were obtained:
[1] = system: B16F10 melanoma; assay: advanced subcutaneous B16F10 melanoma (Example VI); type: in vivo, mice
Protocol: In this experiment, IL-18 was evaluated in an advanced syngeneic tumor model alone and in combination with chemotherapy. Mice bearing advanced subcutaneous B16F10 melanoma were treated with IL-18 alone or in combination with either cyclophosphamide or topotecan. Treatment was initiated on Day 11 postimplantation.

[2] = system: B16F10 melanoma; assay: advanced subcutaneous B16F10 melanoma, repeat with cyclophosphamide (Example VII); type: in vivo, mice; details: for regressions: treatment from median 100 mm^3 (Day 14)
[3] = system: mammary adenocarcinoma 16/c; assay: subcutaneous mammary adenocarcinoma 16/c, IL-18 and doxorubicin (Example IX); type: in vivo, mouse; details: for regressions: alone or combined
Protocol: (§1) An experiment was conducted to determine the effectiveness of IL-18 on its own and in combination with doxorubicin in the 16/c mammary adenocarcinoma tumor model. The 16/c line was implanted subcutaneously at a 1:10 brei and allowed to grow to a median of 52-109 mm^3 before initiation of treatment. Doxorubicin was administered intravenously on Days 12 and 19 at 7.2, 12, and 20 mg/kg. IL-18 was administered subcutaneously at 1, 10, and 100 μg/mouse on a qD×21 schedule starting from Day 12. The endpoints of this study were tumor growth delay and regression.

[4] = mouse, in vivo
Protocol: as §1

[5] = toxicity and toxic deaths in the 16/c experiment (Example IX)
Protocol: as §1

[6] = system: Madison 109 lung carcinoma; assay: subcutaneous Madison 109 lung carcinoma, IL-18 and paclitaxel (Example VIII); type: in vivo, mouse; details: for regressions: alone or combined
[7] = paclitaxel 24 mg/kg iv qD×5
[8] = system: MOPC-315 plasmacytoma; assay: established subcutaneous MOPC-315 plasmacytoma (Example III); type: in vivo, BALB/c mice
Protocol: The MOPC-315 plasmacytoma is analogous to the human cancer known as multiple myeloma. This tumor is a malignancy of the plasma cells, a mature form of B lymphocytes involved in antibody expression. MOPC-315 grows rapidly to a very large size in syngeneic BALB/c mice. It is not highly metastatic or invasive.
IL-18 was evaluated in mice bearing established subcutaneous MOPC-315 plasmacytoma. In order to increase chances of seeing an effect of immunotherapy, IL-18 was evaluated in combination with an effective chemotherapeutic agent as well as by monotherapy. IL-18 at 0.3, 1, 3, and 10 μg/mouse was administered daily intraperitonealy and topotecan was administered intraperitonealy on a q4D schedule at 9 and 15 mg/kg. Both drugs were started on Day 11 postimplantation when the median tumor volume ranged from 32 to 88 mg. Control tumors took 17.2 days to grow to 1 gram. (See FIGS. 5-7).

[9] = system: MOPC-315 plasmacytoma; assay: advanced MOPC-315 plasmacytoma, confirmation with higher IL-18 doses (Example IV); type: in vivo, mice
Protocol: The activity of IL-18 in combination with topotecan in mice bearing advanced MOPC-315 plasmacytoma was confirmed in a large experiment in which higher doses of IL-18 were used. In this experiment, topotecan was administered q4D×6 beginning on Day 10 and IL-18 was given qD×30 beginning on the same day. Both drugs were administered intraperitonealy and activity was assessed by tumor measurements.

[10] = system: Lewis lung carcinoma
Protocol: Treatment was delayed until Day 7 when tumors were established and growing in the lungs. Half of the mice in each group were killed on Day 16 to determine effects of treatment on pulmonary tumor growth, the remaining mice were continued under treatment and monitored for survival. […] Topotecan was administered intraperitonealy q4D×7 beginning on Day 7 and ending on Day 32 and the doses shown are in mg/kg. Murine IL-18 was administered intraperitonealy UID from Day 7 to Day 32 and the doses shown are μg/mouse. There were 3 groups of control animals, all of which died between Day 17 and 30.

[11] = system: Lewis lung carcinoma; assay: advanced systemic Lewis lung carcinoma, confirmation with higher IL-18 doses (Example II); details: for tumor weight and nodule count: Day 14
Protocol: This experiment included the use of higher doses of IL-18. […] The remaining mice were continued under treatment and monitored for survival. Topotecan was administered intraperitonealy q4D×6 on Days 7, 11, 15, 19, 23, and 29; dosage levels shown are mg/kg. Murine IL-18 was administered intraperitonealy qD×26 from Day 7 to Day 33; dosage levels shown are μg/mouse.

[12] = system: MOPC-315 plasmacytoma; assay: advanced MOPC-315 plasmacytoma, schedule and route study (Example V); type: in vivo, mice
Protocol: The evaluation of IL-18 in combination with chemotherapy was repeated to establish: (a) how effective is IL-18 in tumor models when given subcutaneously and (b) whether IL-18 is active when given on an intermittent schedule or whether daily treatment is necessary. The experiment was set up again with topotecan in the advanced MOPC-315 plasmacytoma model with treatment starting on Day 10 when tumors were about 100 mm^3 in volume. Topotecan was given at its MTD of 15 mg/kg on a q4D regimen and IL-18 was given over a broad dosage range either intraperitonealy or subcutaneously on a q1D or q4D regimen. […] However, IL-18 was continued. (See FIGS. 11-13).

[13] = system: colon 26 adenocarcinoma; details: Hanaya et al. 1996; cited from earlier work
[14] = cyclophosphamide MTD 300 mg/kg q7D
[15] = topotecan MTD 15 mg/kg ip q4D from Day 11
[16] = topotecan MTD 15 mg/kg q4D, Day 16
[17] = topotecan 9 mg/kg ip q4D×6 from Day 7
[18] = topotecan 15 mg/kg ip q4D×6 from Day 7
[19] = IL-18 0.3 μg/mouse ip UID Day 7-32
[20] = IL-18 1 μg/mouse ip UID Day 7-32
[21] = IL-18 3 μg/mouse ip UID Day 7-32
[22] = IL-18 10 μg/mouse ip UID Day 7-32
[23] = IL-18 alone 0.3-10 μg/mouse ip UID, Day 16, no clear dose-response
[24] = IL-18 1 μg/mouse ip qD×26 Day 7-33
[25] = IL-18 3 μg/mouse ip qD×26 Day 7-33
[26] = IL-18 10 μg/mouse ip qD×26 Day 7-33
[27] = IL-18 30 μg/mouse ip qD×26 Day 7-33
[28] = IL-18 100 μg/mouse ip qD×26 Day 7-33

Molecule: O=P1(N(CCCl)CCCl)NCCCO1 (stereo not shown) [Cyclophosphamide, cyclophosphamide]
- increase in survival [1, 14]: 95%
- tumor growth delay [1, 14]: 14 days
- tumor growth delay ([2]; cyclophosphamide MTD): 14 days
- tumor growth delay ([2]; cyclophosphamide suboptimal dose 180 mg/kg): 4 days
- regressions [2]: no regressions

Molecule: COc1cccc2c1C(=O)c1c(O)c3c(c(O)c1C2=O)C[C@@](O)(C(=O)CO)C[C@@H]3O[C@H]1C[C@H](N)[C@H](O)[C@H](C)O1 [Doxorubicin, doxorubicin]
- regressions [3]: no regressions
- tumor growth delay ([3]; doxorubicin 7.2, 12, 20 mg/kg iv): dose-dependent tumor growth delay
- efficacy ([3]; doxorubicin at 1/3 of its MTD): little or no efficacy
- weight loss [4]: no weight loss
- MTD ([5]; mouse, in vivo, iv): 20 mg/kg

Molecule: CC(=O)O[C@H]1C(=O)[C@@]2(C)[C@H]([C@H](OC(=O)c3ccccc3)[C@]3(O)C[C@H](OC(=O)[C@H](O)[C@@H](NC(=O)c4ccccc4)c4ccccc4)C(C)=C1C3(C)C)[C@]1(OC(C)=O)CO[C@@H]1C[C@@H]2O [Paclitaxel, paclitaxel, reference compound]
- regressions [6]: no regressions
- ILS (increased life span) ([6]; paclitaxel 12 mg/kg iv qD×5): 27% ILS
- T-C: tumor growth delay ([6]; paclitaxel 12 mg/kg iv qD×5 (Days 9-13)): T-C 3.5 days,
- ILS (increased life span) ([6]; paclitaxel 24 mg/kg iv qD×5): 35% ILS
- T-C: tumor growth delay ([6]; paclitaxel 24 mg/kg iv qD×5): T-C 9.7 days,
- survival ([6]; paclitaxel alone): minimal prolongation of survival
- tumor growth delay ([6]; paclitaxel alone): minimal tumor growth delay
- body weight loss [7]: 4.7 g

Molecule: CC[C@@]1(O)C(=O)OCc2c1cc1n(c2=O)Cc2cc3c(CN(C)C)c(O)ccc3nc2-1 [Topotecan, topotecan, reference compound]
- regressions ([8]; topotecan 9 mg/kg ip q4D): no regressions
- tumor growth delay ([8]; topotecan 9 mg/kg ip q4D): 4 days
- complete regressions [8, 15]: 1/7
- tumor growth delay [8, 15]: about 12 days
- complete regressions ([9]; topotecan MTD alone ip q4D×6 from Day 10): 2/6
- effect on tumor ([9]; topotecan suboptimal dose alone): virtually no effect
- antitumor activity ([1]; topotecan at its MTD): inactive
- Increase in Lifespan ([10]; topotecan 9.0 mg/kg (0.6×MTD) ip q4D×7 from Day 7): 63%
- Median Survival Time ([10]; topotecan 9.0 mg/kg ip q4D×7 from Day 7): 36 days
- Increase in Lifespan ([10]; topotecan 15 mg/kg (MTD) ip q4D×7 from Day 7): 68%
- Median Survival Time ([10]; topotecan 15 mg/kg ip q4D×7 from Day 7): 37 days
- average number of pulmonary tumor nodules [10, 16]: 45
- suppression of tumor growth [10, 16]: > 90%
- Increase in Lifespan [11, 17]: 42%
- Median Survival Time [11, 17]: 25.5 days
- Increase in Lifespan [11, 18]: 86%
- Median Survival Time [11, 18]: 33.5 days
- tumor weight and nodule count ([11]; topotecan MTD 15 mg/kg): good reduction in tumor weight and nodule count
- tumor weight and nodule count ([11]; topotecan lower dose 9 mg/kg): lesser effect on both parameters

B1: IL-18: cytokine, interferon-γ-inducing factor; murine IL-18 (SEQ ID NO:2) was administered to mice (protein)
chain: NFGRLHCTTAVIRNINDQVLFVDKRQPVFEDMTDIDQSASEPQTRLIIYMYKDSEVRGLAVTLSVKDSKMSTLSCKNKIISFEEMDPPENIDDIQSDLIFFQKRVPGHNKMEFESSLYEGHFLACQKEDDAFKLILKKKDENGDKSVMFTLTNLHQS
modifications: Mouse
- tumor growth delay ([8]; IL-18 alone 0.3, 1, 3, 10 μg/mouse daily ip from Day 11): 1.3 to 3.1 days
- effect on tumor growth of established tumors ([8]; IL-18 alone 0.3-10 μg/mouse daily ip from Day 11): only a minimal effect on the tumor growth; also recorded: no effect of IL-18 alone on tumor growth
- complete regressions ([9]; IL-18 alone 100 μg/mouse/day ip qD×30 from Day 10): 4 of 6
- effect on tumor ([9]; IL-18 alone, doses lower than 100 μg/mouse/day): ineffective
- antitumor activity ([12]; IL-18 alone q1D 100 μg/day, ip and sc): active
- route comparison ([12]; IL-18 alone q1D 100 μg/day, ip versus sc): intraperitoneal was more effective
- induction of regression ([12]; IL-18 alone, intermittent, 1000 or 100 μg/dose): ineffective in inducing regression
- ILS (effect on survival time) ([1]; IL-18 alone from Day 11): < 30%
- effect on tumor growth ([1]; IL-18 alone from Day 11): no effect on tumor growth
- tumor growth delay ([2]; IL-18 alone): about 2 days
- regressions [2]: no regressions
- T-C: tumor growth delay ([6]; IL-18 1 μg sc qD×21): T-C 1.7 days,
- ILS (increased life span) ([6]; IL-18 10 μg sc qD×21): 12% ILS
- T-C: tumor growth delay ([6]; IL-18 10 μg sc qD×21): T-C 2.1 days,
- ILS (increased life span) ([6]; IL-18 100 μg sc qD×21): 0% ILS
- T-C: tumor growth delay ([6]; IL-18 100 μg sc qD×21): T-C 2.8 days,
- tumor growth ([6]; IL-18 alone at the low dose): without delaying tumor growth
- regressions [6]: no regressions
- tumor growth delay ([3]; IL-18 alone 1-100 μg/mouse, no dose-response): less than a week
- regressions [3]: no regressions
- Increase in Lifespan [10, 19]: 0%
- Median Survival Time [10, 19]: 22 days
- Increase in Lifespan [10, 20]: 2%
- Median Survival Time [10, 20]: 22.5 days
- Increase in Lifespan [10, 21]: 4%
- Median Survival Time [10, 21]: 23 days
- Increase in Lifespan [10, 22]: 9%
- Median Survival Time [10, 22]: 24 days
- effect on survival time ([10]; IL-18 alone 0.3-10 μg/mouse ip UID): no effect on survival time; also recorded: did not have an enhanced median survival time
- lung tumor nodule count [10, 23]: significantly decreased
- lung tumor weight [10, 23]: significantly decreased
- metastasis and growth of tumor [13]: inhibit the metastasis and growth of colon 26 adenocarcinoma
- toxicity ([5]; IL-18 1 μg/mouse qD×21 from Day 12): Not Toxic
- toxicity ([5]; IL-18 10 μg/mouse qD×21 from Day 12): Not Toxic
- toxicity ([5]; IL-18 100 μg/mouse qD×21 from Day 12): Not Toxic
- Increase in Lifespan [11, 24]: 11%
- Median Survival Time [11, 24]: 20 days
- Increase in Lifespan [11, 25]: 0%
- Median Survival Time [11, 25]: 18 days
- Increase in Lifespan [11, 26]: 0%
- Median Survival Time [11, 26]: 18 days
- Increase in Lifespan [11, 27]: 3%
- Median Survival Time [11, 27]: 18.5 days
- Increase in Lifespan [11, 28]: 22%
- Median Survival Time [11, 28]: 22 days
